From patent publication US20210024639A1 (AGOMAB THERAPEUTICS, published 2021)

Experiments:
[1] = target: T1, native human MET on living human cells (human, UniProt P08581 25-1390); experiment: cell-based or functional assay
[2] = target: T2, native mouse MET on living mouse cells (mouse, UniProt P16056 25-1379); experiment: cell-based or functional assay
[3] = target: T1, native human MET on living human cells; experiment: cell-based or functional assay; remark: listed apart in the source
[4] = target: T2, native mouse MET on living mouse cells; experiment: cell-based or functional assay; remark: listed apart in the source
[5] = target: T1, native human MET on living human cells; experiment: flow cytometry, A549 cells
Procedure, shortened: (§1)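 PE fluorescence read-out: living cells stained with chimeric anti-MET antibodies, then PE-conjugated anti-human IgG1 secondary, analysed by flow cytometry. Values expressed as maximal binding (EMAX).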

[6] = target: T2, native mouse MET on living mouse cells; experiment: flow cytometry, MLP29 cells
Procedure, shortened: as §1

[7] = target: human MET ECD mutant I (mutations 6, 7, 8) (human) (UniProt P08581); experiment: ELISA, MET ECD mutant in solid phase, mAb 0-50 nM
[8] = target: human MET ECD mutant J (mutations 6, 7) (human) (UniProt P08581); experiment: ELISA, MET ECD mutant in solid phase, mAb 0-50 nM
[9] = target: T3, human MET-Fc chimeric protein (R&D Systems) (human, UniProt P08581 25-932); experiment: competition ELISA, hMET-Fc in solid phase, competitor 0.3 nM biotinylated hHGF
T3 construct: extracellular domain; bought (R&D Systems); also called hMET; not shown: Fc portion of human IgG1
Procedure, shortened: (§2)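 Values are IC₅₀, the antibody level reaching half-maximal competition, and IMAX, the highest percent competition at saturation. Each antibody was added from 0 to 120 nM alongside HGF labelled at the N-terminus with NHS-LC-biotin, on immobilized MET-Fc.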

[10] = target: T4, mouse MET-Fc chimeric protein (R&D Systems) (mouse, UniProt P16056 25-929, limits assumed); experiment: competition ELISA, mMET-Fc in solid phase, competitor 0.3 nM biotinylated mHGF
T4 construct: bought (R&D Systems); also called mMET; not shown: Fc
Procedure, shortened: as §2

B1: chimeric llama-human IgG1 mAb 71G3 (antibody, V domains shown)
VH: QVQLVESGGGLVQPGGSLRVSCAASGFTFSTYYMSWVRQAPGKGLEWVSDIRTDGGTYYADSVKGRFTMSRDNAKNTLYLQMNSLKPEDTALYYCARTRIFPSGYDYWGQGTQVTVSS
VL: QAVVTQEPSLSVSPGGTVTLTCGLSSGSVTTSNYPGWFQQTPGQAPRTLIYNTNSRHSGVPSRFSGSISGNKAALTIMGAQPEDEADYYCSLYPGSTTVFGGGTHLTVL
- cell scattering score, HPAF-II, 0.001 nM [1]: 0 score 0-4
- cell scattering score, HPAF-II, 0.004 nM [1]: 0 score 0-4
- cell scattering score, HPAF-II, 0.012 nM [1]: 1 score 0-4
- cell scattering score, HPAF-II, 0.037 nM [1]: 2 score 0-4
- cell scattering score, HPAF-II, 0.111 nM [1]: 3 score 0-4
- cell scattering score, HPAF-II, 0.333 nM [1]: 4 score 0-4
- cell scattering score, HPAF-II, 1.000 nM [1]: 4 score 0-4
- cell scattering score, HPAF-II, 3.000 nM [1]: 4 score 0-4
- cell scattering score, HPAF-II, 9.000 nM [1]: 4 score 0-4
- cell scattering score, MLP29, 0.001 nM [2]: 0 score 0-4
- cell scattering score, MLP29, 0.004 nM [2]: 0 score 0-4
- cell scattering score, MLP29, 0.012 nM [2]: 0 score 0-4
- cell scattering score, MLP29, 0.037 nM [2]: 1 score 0-4
- cell scattering score, MLP29, 0.111 nM [2]: 2 score 0-4
- cell scattering score, MLP29, 0.333 nM [2]: 4 score 0-4
- cell scattering score, MLP29, 1.000 nM [2]: 4 score 0-4
- cell scattering score, MLP29, 3.000 nM [2]: 4 score 0-4
- cell scattering score, MLP29, 9.000 nM [2]: 4 score 0-4
- protection from staurosporine, viability EC50, MCF10A [3]: 5.04 nM
- protection from staurosporine, viability EMAX, MCF10A [3]: 65.2%
- protection from staurosporine, viability EC50, MLP29 [4]: 4.85 nM
- protection from staurosporine, viability EMAX, MLP29 [4]: 62.3%
- EMAX (% relative to control) [5]: 117%
- EMAX (% relative to control) [6]: 116%
- % binding (EMAX) compared to WT MET [7]: 100%
- % binding (EMAX) compared to WT MET [8]: 91.2%
- IMAX (maximum % competition) [9]: 63.2%
- IMAX (maximum % competition) [10]: 62.9%
